Numbered stars: 1 amine (or outer) side, 2 acyl side, 3 side chain; on linkers, the order of the positions; unused ones are H or OH. Bridge positions count the residues as written; N and C are the ends. Square brackets hold non-standard residues; d marks the D form. R7 = (R)-2-(6-heptenyl)alanine, C=CCCCCC[C@@](C)(N[*:1])C(=O)[*:2]; MG = Monomer G = RdN, acyclic alkyl-N(Alloc) stapling residue; R5 = C=CCCC[C@@](C)(N)C(=O)O

Assay [1] deals with T1, biotinylated beta-catenin (Homo sapiens, UniProt P35222).
T1 sequence (P35222 1-781): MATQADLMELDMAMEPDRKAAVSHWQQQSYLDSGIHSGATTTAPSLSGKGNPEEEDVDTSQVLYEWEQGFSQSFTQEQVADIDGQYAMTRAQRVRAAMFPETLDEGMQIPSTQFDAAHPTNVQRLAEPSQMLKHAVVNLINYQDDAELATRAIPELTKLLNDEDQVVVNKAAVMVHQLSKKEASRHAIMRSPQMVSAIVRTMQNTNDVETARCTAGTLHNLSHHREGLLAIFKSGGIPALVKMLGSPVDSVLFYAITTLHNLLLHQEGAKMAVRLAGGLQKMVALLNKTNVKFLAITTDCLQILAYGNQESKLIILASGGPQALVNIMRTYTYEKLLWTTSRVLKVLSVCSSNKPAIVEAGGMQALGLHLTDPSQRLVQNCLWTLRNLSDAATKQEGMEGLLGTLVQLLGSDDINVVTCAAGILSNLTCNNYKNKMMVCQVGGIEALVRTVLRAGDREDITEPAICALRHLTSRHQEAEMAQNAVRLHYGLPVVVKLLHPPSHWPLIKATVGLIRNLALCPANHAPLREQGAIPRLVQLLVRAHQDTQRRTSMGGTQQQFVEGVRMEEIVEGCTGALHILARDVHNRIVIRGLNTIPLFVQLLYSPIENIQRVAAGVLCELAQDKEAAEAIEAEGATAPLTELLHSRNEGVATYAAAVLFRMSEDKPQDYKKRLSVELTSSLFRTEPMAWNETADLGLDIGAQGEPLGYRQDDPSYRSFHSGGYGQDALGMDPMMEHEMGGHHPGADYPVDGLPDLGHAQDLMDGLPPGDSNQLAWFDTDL
Description: Surface Plasmon Resonance (Biacore). Format: binding. Particulars: Biacore, biotinylated beta-catenin; read-out: Kd. The protocol: Additionally or alternatively, binding to beta-catenin may be measured by Surface Plasmon Resonance. In an exemplary assay, approximately 6 nmol dried peptide diluted in buffer (50 mM Tris pH 8.0, 300 mM NaCl, 2% glycerol, 0.5 mM TCEP, 0.5 mM EDTA, 0.005% Tween-20, 1 mg/mL CM Dextran, 0.02% w/v sodium azide) was assayed on a Biacore X100 using the Biacore Biotin CAPture Kit (GE Healthcare) and biotinylated beta-catenin. Results were analyzed using the Biacore X100 Evaluation Software. […] FPO217c (Isomer 2) bound to the armadillo domain of β-catenin with a Kd of 2 nM.

Assay [2] concerns the target T2, full-length beta-catenin (UniProt P35222 2-781, limits assumed).
T2 construct: mature; also called full-length ß-Catenin; β-catenin
T2 sequence (looked up): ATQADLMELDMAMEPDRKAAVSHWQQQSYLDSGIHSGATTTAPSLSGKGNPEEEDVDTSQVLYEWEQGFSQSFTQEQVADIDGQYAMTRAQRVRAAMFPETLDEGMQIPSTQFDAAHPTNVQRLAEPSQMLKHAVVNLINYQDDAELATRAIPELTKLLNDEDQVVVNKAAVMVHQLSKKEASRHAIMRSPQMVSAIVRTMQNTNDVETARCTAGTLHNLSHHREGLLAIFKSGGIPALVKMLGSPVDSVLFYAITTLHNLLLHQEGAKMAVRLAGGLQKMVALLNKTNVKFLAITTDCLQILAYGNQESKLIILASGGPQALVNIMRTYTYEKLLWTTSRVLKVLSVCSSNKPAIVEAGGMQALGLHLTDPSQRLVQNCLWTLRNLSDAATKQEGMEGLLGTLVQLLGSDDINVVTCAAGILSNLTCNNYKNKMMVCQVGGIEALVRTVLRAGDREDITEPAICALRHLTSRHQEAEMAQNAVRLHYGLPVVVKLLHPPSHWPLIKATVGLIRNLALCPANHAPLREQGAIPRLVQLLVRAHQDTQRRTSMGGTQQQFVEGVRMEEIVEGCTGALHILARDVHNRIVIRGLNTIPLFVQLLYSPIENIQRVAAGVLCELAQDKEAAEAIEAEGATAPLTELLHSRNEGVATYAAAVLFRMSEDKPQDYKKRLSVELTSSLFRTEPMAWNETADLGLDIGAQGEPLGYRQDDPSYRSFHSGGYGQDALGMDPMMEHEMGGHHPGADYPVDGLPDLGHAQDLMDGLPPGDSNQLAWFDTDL
Description: competition FP. The protocol:
(§1) In some embodiments, a competition fluorescence polarization assay is used to assess binding of provided compounds to beta-catenin. In an exemplary procedure, solutions of provided compounds, e.g., provided stapled peptides, were prepared in a buffer (e.g., 50 mM Tris pH 8.0, 250 mM NaCl, 2% glycerol, 0.5 mM EDTA, 0.02% w/v sodium azide) using a 3-fold serial dilution from 5 µM. Probe solution (15 nM full-length ß-Catenin, 20 nM FITC labeled peptide in buffer) was prepared and incubated for a period of time, e.g., 5 minutes, and the a volume, e.g., 40 µL per well plated in suitable plate, e.g., a black polystyrene 384-well plate (Corning). Equal volume of the serial diluted peptide was added to the plate and incubated protected from light for 15 minutes prior to read. Reads were performed on a Spectramax M5 (Molecular Devices) in duplicate. Suitable probe was FITC-PEG1-PQ-S5-ILD-S5-HVRRVWR (SEQ ID NO: 1) (hydrocarbon staple formed by two S5 via olefin metathesis) and/or FITC-bA-PQ-S5-ILD-S5-HVRRVWR (SEQ ID NO: 3) (hydrocarbon staple formed by two S5 via olefin metathesis). […] Another peptide, FPO217c (Ac-AR_8ILDAHIM$B5$RVW (SEQ ID NO: 280), with N-terminal proline removed and valine replaced with isoleucine compared to FP0025c) was prepared.

Assay [3] addresses T2, full-length beta-catenin. Description: competition FP, grade of FP EC50 (++: 100-500 nM). The method, then: as §1

The Kd is a measure of binding affinity in units of concentration. Regarding `CC[C@H](C)[C@@H]1NC(=O)[C@](C)(NC(=O)[C@H](CCC(N)=O)NC(=O)[C@@H]2CCCN2C(C)=O)CCC=CCOC(=O)N2CC[C@](C(=O)N[C@@H](Cc3c[nH]cn3)C(=O)N[C@H](C(=O)N[C@@H](CCCNC(=N)N)C(=O)N[C@@H](CCCNC(=N)N)C(=O)N[C@H](C(=O)N[C@@H](Cc3c[nH]c4ccccc34)C(=O)N[C@@H](CCCNC(=N)N)C(N)=O)C(C)C)C(C)C)(C2)NC(=O)[C@H](CC(=O)O)NC(=O)[C@H](CC(C)C)NC1=O` (single isomer, unassigned) [FP-0765c, Ac-P-Q-R4-I-L-D-PR-H-V-R-R-V-W-R-NH2], the Kd in assay [1] was roughly 13 nM. On the same count and under the same terms, under `CC[C@H](C)[C@@H]1NC(=O)[C@](C)(NC(=O)[C@H](CCC(N)=O)NC(=O)[C@@H]2CCCN2C(C)=O)CCCC=CCOC(=O)N2CC[C@](C(=O)N[C@@H](Cc3c[nH]cn3)C(=O)N[C@H](C(=O)N[C@@H](CCCNC(=N)N)C(=O)N[C@@H](CCCNC(=N)N)C(=O)N[C@H](C(=O)N[C@@H](Cc3c[nH]c4ccccc34)C(=O)N[C@@H](CCCNC(=N)N)C(N)=O)C(C)C)C(C)C)(C2)NC(=O)[C@H](CC(=O)O)NC(=O)[C@H](CC(C)C)NC1=O` (single isomer, unassigned) [FP-0766c, Ac-P-Q-R5-I-L-D-PR-H-V-R-R-V-W-R-NH2] stands roughly 7 nM; under `CC[C@H](C)[C@@H]1NC(=O)[C@@](C)(NC(=O)[C@H](CCC(N)=O)NC(=O)[C@@H]2CCCN2C(C)=O)CCCC=CCCC[C@@](C)(C(=O)N[C@@H](Cc2c[nH]cn2)C(=O)N[C@H](C(=O)N[C@@H](CCCNC(=N)N)C(=O)N[C@@H](CCCNC(=N)N)C(=O)N[C@H](C(=O)N[C@@H](Cc2c[nH]c3ccccc23)C(=O)N[C@@H](CCCNC(=N)N)C(N)=O)C(C)C)C(C)C)NC(=O)[C@H](CC(=O)O)NC(=O)[C@H](CC(C)C)NC1=O` (single isomer, unassigned) [FP-0787c], roughly 14 nM.

B1: FP0782c (peptide)
peptide: Ac-PQ[MG]ILD[R5]HVRRVWR-NH2
modifications: staple 3-7; also: carbamate staple (-N(R')-C(O)-O-) by ring-closing olefin metathesis
Usually EC50 stands for the concentration needed to bring the measured effect to its halfway point. B1 had an EC50 in the assay with full-length beta-catenin [2] of 380 nM. Further, the “FP EC50” value in the assay with full-length beta-catenin [3] was 100 to 500 nM.

B2: FP0768c (peptide)
peptide: Ac-PQ[R7]ILD[MC]HVRRVWR-NH2
modifications: staple 3-7; also: carbamate staple (-N(R')-C(O)-O-) by ring-closing olefin metathesis
notes: also called R7/PR
In the assay with full-length beta-catenin [2], B2 gave a concentration for a half-maximal effect (EC50) of 150 nM. Besides, the “FP EC50” value with full-length beta-catenin [3] fell in the range of 100 to 500 nM.
